In article PMC6188088:

Columns and labels:
[1] = target: TnpA^IS1535 single-cysteine mutant Cys162 (three native cysteines replaced with serines) (Mycobacterium tuberculosis); experiment: cross-linking; disulfide cross-linking of cysteine-substituted TnpA^IS1535: oxidation with 0.2 mM diamide at 4°C overnight in 25 mM HEPES pH 7.5, 1 M Na acetate, 20% glycerol; non-reducing SDS-PAGE
[2] = target: TnpA^IS1535 C-terminal domain (CTD), residues 51-193 (Mycobacterium tuberculosis); experiment: crystal structure; TnpA^IS1535 CTD (51-193), hanging drop, 0.3 M sodium acetate pH 5.0, 1 mM TCEP mixed with 0.2 M sodium citrate + 20% PEG3350; 2.5 Å; one dimer in the asymmetric unit

Substance	percent disulfide-linked dimers [1] [%]	stoichiometry N [2]
TnpA^IS1535 single-cysteine mutant Cys162 (three native cysteines replaced with serines) (enzyme)	40	–
TnpA^IS1535 C-terminal domain (CTD), residues 51-193 (domain or fragment)	–	2
